The data set concerns the molecule itself. As to the kind of experiment: SDS-PAGE of unboiled and boiled samples.

B1: cholera toxin B-subunit (CTB) (natural protein)
chain: TPQNITDLCAEYHNTQIYTLNDKIFSYTESLAGKREMAIITFKNGAIFQVEVPGSQHIDSQKKAIERMKDTLRIAYLTEAKVEKLCVWNNKTPHAIAAISMAN
For B1, the “stoichiometry N” value amounted to 5.

Usually stoichiometry N stands for a count of units in the complex or per binding partner.

The record behind these values is publication PMC13218038 (ACS Nano, 2026).
